Several values for one entry are separate records, joined by “and”; a condition that tells them apart may be missing. Equal values may be shown once.

First the molecules themselves.
B1: S173P + S175P + F180Y + L184F: protease variant of SEQ ID NO 3 (protein, listed as Bacillus sp.)
chain: AVPSTQTPWGIKSIYNDQSITKTTGGSGIKVAVLDTGVYTSHLDLAGSAEQCKDFTQSNPLVDGSCTDRQGHGTHVAGTVLAHGGSNGQGVYGVAPQAKLWAYKVLGDNGSGYSDDIAAAIRHVADEASRTGSKVVINMSLGSSAKDSLIASAVDYAYGKGVLIVAAAGNSGPGPNTIGYPGGFVNAVAVAALENVQQNGTYRVADFSSRGNPATAGDYIIQERDIEVSAPGASVESTWYTGGYNTISGTSMATPHVAGLAAKIWSANTSLSHSQLRTELQNRAKVYDIKGGIGAGTGDDYASGFGYPRVK
B2: S173P + S175P + F180Y + G182A: protease variant of SEQ ID NO 3 (protein, listed as Bacillus sp.)
chain: AVPSTQTPWGIKSIYNDQSITKTTGGSGIKVAVLDTGVYTSHLDLAGSAEQCKDFTQSNPLVDGSCTDRQGHGTHVAGTVLAHGGSNGQGVYGVAPQAKLWAYKVLGDNGSGYSDDIAAAIRHVADEASRTGSKVVINMSLGSSAKDSLIASAVDYAYGKGVLIVAAAGNSGPGPNTIGYPAGLVNAVAVAALENVQQNGTYRVADFSSRGNPATAGDYIIQERDIEVSAPGASVESTWYTGGYNTISGTSMATPHVAGLAAKIWSANTSLSHSQLRTELQNRAKVYDIKGGIGAGTGDDYASGFGYPRVK
B3: S111I + S173P + S175P + F180Y: protease variant of SEQ ID NO 3 (protein, listed as Bacillus sp.)
chain: AVPSTQTPWGIKSIYNDQSITKTTGGSGIKVAVLDTGVYTSHLDLAGSAEQCKDFTQSNPLVDGSCTDRQGHGTHVAGTVLAHGGSNGQGVYGVAPQAKLWAYKVLGDNGIGYSDDIAAAIRHVADEASRTGSKVVINMSLGSSAKDSLIASAVDYAYGKGVLIVAAAGNSGPGPNTIGYPGGLVNAVAVAALENVQQNGTYRVADFSSRGNPATAGDYIIQERDIEVSAPGASVESTWYTGGYNTISGTSMATPHVAGLAAKIWSANTSLSHSQLRTELQNRAKVYDIKGGIGAGTGDDYASGFGYPRVK
B4: S173P + S175P + I178Y + F180Y: protease variant of SEQ ID NO 3 (protein, listed as Bacillus sp.)
chain: AVPSTQTPWGIKSIYNDQSITKTTGGSGIKVAVLDTGVYTSHLDLAGSAEQCKDFTQSNPLVDGSCTDRQGHGTHVAGTVLAHGGSNGQGVYGVAPQAKLWAYKVLGDNGSGYSDDIAAAIRHVADEASRTGSKVVINMSLGSSAKDSLIASAVDYAYGKGVLIVAAAGNSGPGPNTYGYPGGLVNAVAVAALENVQQNGTYRVADFSSRGNPATAGDYIIQERDIEVSAPGASVESTWYTGGYNTISGTSMATPHVAGLAAKIWSANTSLSHSQLRTELQNRAKVYDIKGGIGAGTGDDYASGFGYPRVK
B5: S173P + S175P + I178F + F180Y: protease variant of SEQ ID NO 3 (protein, listed as Bacillus sp.)
chain: AVPSTQTPWGIKSIYNDQSITKTTGGSGIKVAVLDTGVYTSHLDLAGSAEQCKDFTQSNPLVDGSCTDRQGHGTHVAGTVLAHGGSNGQGVYGVAPQAKLWAYKVLGDNGSGYSDDIAAAIRHVADEASRTGSKVVINMSLGSSAKDSLIASAVDYAYGKGVLIVAAAGNSGPGPNTFGYPGGLVNAVAVAALENVQQNGTYRVADFSSRGNPATAGDYIIQERDIEVSAPGASVESTWYTGGYNTISGTSMATPHVAGLAAKIWSANTSLSHSQLRTELQNRAKVYDIKGGIGAGTGDDYASGFGYPRVK
B6: S173P + S175P + I178P + F180Y: protease variant of SEQ ID NO 3 (protein, listed as Bacillus sp.)
chain: AVPSTQTPWGIKSIYNDQSITKTTGGSGIKVAVLDTGVYTSHLDLAGSAEQCKDFTQSNPLVDGSCTDRQGHGTHVAGTVLAHGGSNGQGVYGVAPQAKLWAYKVLGDNGSGYSDDIAAAIRHVADEASRTGSKVVINMSLGSSAKDSLIASAVDYAYGKGVLIVAAAGNSGPGPNTPGYPGGLVNAVAVAALENVQQNGTYRVADFSSRGNPATAGDYIIQERDIEVSAPGASVESTWYTGGYNTISGTSMATPHVAGLAAKIWSANTSLSHSQLRTELQNRAKVYDIKGGIGAGTGDDYASGFGYPRVK
B7: S173P + S175P + F180Y + L184W: protease variant of SEQ ID NO 3 (protein, listed as Bacillus sp.)
chain: AVPSTQTPWGIKSIYNDQSITKTTGGSGIKVAVLDTGVYTSHLDLAGSAEQCKDFTQSNPLVDGSCTDRQGHGTHVAGTVLAHGGSNGQGVYGVAPQAKLWAYKVLGDNGSGYSDDIAAAIRHVADEASRTGSKVVINMSLGSSAKDSLIASAVDYAYGKGVLIVAAAGNSGPGPNTIGYPGGWVNAVAVAALENVQQNGTYRVADFSSRGNPATAGDYIIQERDIEVSAPGASVESTWYTGGYNTISGTSMATPHVAGLAAKIWSANTSLSHSQLRTELQNRAKVYDIKGGIGAGTGDDYASGFGYPRVK
B8: S173P + S175P + F180Y + L184Y: protease variant of SEQ ID NO 3 (protein, listed as Bacillus sp.)
chain: AVPSTQTPWGIKSIYNDQSITKTTGGSGIKVAVLDTGVYTSHLDLAGSAEQCKDFTQSNPLVDGSCTDRQGHGTHVAGTVLAHGGSNGQGVYGVAPQAKLWAYKVLGDNGSGYSDDIAAAIRHVADEASRTGSKVVINMSLGSSAKDSLIASAVDYAYGKGVLIVAAAGNSGPGPNTIGYPGGYVNAVAVAALENVQQNGTYRVADFSSRGNPATAGDYIIQERDIEVSAPGASVESTWYTGGYNTISGTSMATPHVAGLAAKIWSANTSLSHSQLRTELQNRAKVYDIKGGIGAGTGDDYASGFGYPRVK
B9: S173P + S175P + F180Y + G182S: protease variant of SEQ ID NO 3 (protein, listed as Bacillus sp.)
chain: AVPSTQTPWGIKSIYNDQSITKTTGGSGIKVAVLDTGVYTSHLDLAGSAEQCKDFTQSNPLVDGSCTDRQGHGTHVAGTVLAHGGSNGQGVYGVAPQAKLWAYKVLGDNGSGYSDDIAAAIRHVADEASRTGSKVVINMSLGSSAKDSLIASAVDYAYGKGVLIVAAAGNSGPGPNTIGYPSGLVNAVAVAALENVQQNGTYRVADFSSRGNPATAGDYIIQERDIEVSAPGASVESTWYTGGYNTISGTSMATPHVAGLAAKIWSANTSLSHSQLRTELQNRAKVYDIKGGIGAGTGDDYASGFGYPRVK
B10: K146R + S173P + S175P + F180Y: protease variant of SEQ ID NO 3 (protein, listed as Bacillus sp.)
chain: AVPSTQTPWGIKSIYNDQSITKTTGGSGIKVAVLDTGVYTSHLDLAGSAEQCKDFTQSNPLVDGSCTDRQGHGTHVAGTVLAHGGSNGQGVYGVAPQAKLWAYKVLGDNGSGYSDDIAAAIRHVADEASRTGSKVVINMSLGSSARDSLIASAVDYAYGKGVLIVAAAGNSGPGPNTIGYPGGLVNAVAVAALENVQQNGTYRVADFSSRGNPATAGDYIIQERDIEVSAPGASVESTWYTGGYNTISGTSMATPHVAGLAAKIWSANTSLSHSQLRTELQNRAKVYDIKGGIGAGTGDDYASGFGYPRVK

The assay is described as follows: Inhibitor binding assay of SEQ ID NO 3 variants, Inhibitor 1, in Model B detergent. It is filed as biochemical. The settings on record: in Model B relative to SEQ ID NO 3 comprising S173P + S175P + F180Y; relative Ki, IF>1.0 = lower Ki. The text has this:
Where E is the protease, I is the inhibitor and EI is the protease-inhibitor complex. […] The concentration of enzyme-inhibitor in the detergent solution is then given by:
where Etot is the total protease concentration ([Etot]=[E]+[EI]), Itot is the total inhibitor concentration ([Itot]=[I]+[EI]), and Ki is the equilibrium binding constant for the reaction. The measured slopes V are given by:
where V0 is the slope without inhibitor added. To calculate apparent binding constant Ki least square fitting of measured slopes at various inhibitor concentrations to this equation is performed with Ki and V0 as variables.
Purified protease variants are pre-diluted to approximately 0.2 mg/ml in dilution buffer. The experimental conditions are described in Table 5. 40 μl diluted protease is then mixed with 40 μl inhibitor solution Inhibitor 1: (Cbz-Gly-Ala-NHCH(CH2C6H4pOH)C(OH)(SO3Na)—H, wherein Cbz is benzyloxycarbonyl) or 40 μl Inhibitor 2: (4-FPBA) solution in the well of a 96 well microtiter plate (Nunc F 96-MTP). […] After 10 min mixing of protease and inhibitor at room temperature, 30 μl of the mixture is transferred to a microtiter plate (Nunc U96 PP 0.5 ml) with 270 μl Model B detergent (described in Table 1) in the wells resulting in inhibitor 1 concentrations of 0-30 μM and inhibitor 2 concentrations of 0-6000 μM. Protease, inhibitor and detergent is mixed for 1 hour using magnetic bars for 1 hour at room temperature to reach equilibrium. Then 20 μl is transferred to a microtiter plate (Nunc F 96-MTP). 100 μl substrate solution is added and after 5 sec mixing absorbance at 405 nm is measured every 20 sec for 5 min on a SpectraMax Plus reader. Slope from linear regression of initial increase in absorbance at 405 nm is used for calculation of apparent binding constants. Ki values were calculated according to the “Calculation of Ki” method described in “Materials and Methods”
Having the Ki for each variant, it is possible to calculate the effect of a single mutation, if data are available for at least two variants that differ only by that mutation. In this case, the relative Ki for the mutation (Improvement Factor, or IF) is calculated:
A lower Ki is desirable, as a satisfactory inhibition can be obtained at a lower inhibitor concentration, so beneficial mutations have an IF>1.0
With B1, the “inhibitor 1 binding constant improvement factors (IF)” value is 4.28 and 3.02.

Regarding B2, the “inhibitor 1 binding constant improvement factors (IF)” value is 2.49 and 2.01. For the molecule B3, the “inhibitor 1 binding constant improvement factors (IF)” value is 1.12. To B4 belongs 2.15; to B5, 2.34 and 1.83. Turning to B6, the “inhibitor 1 binding constant improvement factors (IF)” value came to 2.22. The same measure for B7: 2.23. To B8 belongs 3.91; to B9, 1.69; to B10, 1.31.

The values are drawn from US20170342349A1, “STABILIZED ENZYME COMPOSITIONS” (NOVOZYMES A/S, priority 2014, published 2017).
